Data from PMC9524831 (Science Advances, 2022).

Target: HA-GluA1 (mouse AMPA receptor subunit GluA1) (mouse, UniProt P23818 19-907)
Test: cell-based or functional assay

Chain of HA-GluA1 (mouse AMPA receptor subunit GluA1) (P23818 19-907): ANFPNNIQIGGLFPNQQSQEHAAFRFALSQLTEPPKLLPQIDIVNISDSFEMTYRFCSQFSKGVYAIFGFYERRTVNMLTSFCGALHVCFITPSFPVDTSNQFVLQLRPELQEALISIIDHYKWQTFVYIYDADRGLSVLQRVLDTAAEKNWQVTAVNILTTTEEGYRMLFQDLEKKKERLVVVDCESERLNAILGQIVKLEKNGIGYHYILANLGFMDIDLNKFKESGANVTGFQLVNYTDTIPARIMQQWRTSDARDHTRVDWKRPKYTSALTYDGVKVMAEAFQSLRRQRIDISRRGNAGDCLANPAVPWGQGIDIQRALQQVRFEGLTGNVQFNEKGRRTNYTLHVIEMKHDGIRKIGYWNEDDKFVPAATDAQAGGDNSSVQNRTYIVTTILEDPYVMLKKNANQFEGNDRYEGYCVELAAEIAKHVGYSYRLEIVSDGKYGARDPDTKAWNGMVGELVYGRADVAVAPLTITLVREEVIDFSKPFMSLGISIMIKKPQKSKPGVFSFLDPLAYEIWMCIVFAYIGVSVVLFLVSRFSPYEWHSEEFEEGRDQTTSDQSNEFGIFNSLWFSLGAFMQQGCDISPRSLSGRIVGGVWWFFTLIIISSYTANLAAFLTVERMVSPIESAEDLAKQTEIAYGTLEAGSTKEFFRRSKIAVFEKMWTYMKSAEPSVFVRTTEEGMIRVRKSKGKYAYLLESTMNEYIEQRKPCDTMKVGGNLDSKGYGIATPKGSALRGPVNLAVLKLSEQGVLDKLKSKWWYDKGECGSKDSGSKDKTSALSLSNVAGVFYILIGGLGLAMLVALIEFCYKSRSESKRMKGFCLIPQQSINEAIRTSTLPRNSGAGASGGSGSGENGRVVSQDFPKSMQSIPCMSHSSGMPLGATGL

Row | GluA1 polyubiquitination level relative to wild-type RNF220 transfection | Binder
1 | 0.34 | RNF220(R363Q) (enzyme, mouse, UniProt Q6PDX6 1-566, looked up) MDLHRAAFKMENSSYLPNPLASPALMVLASTAEASRDASIPCQQPRPFGVPVSVDKDVHIPFTNGSYTFASMYHRQGGVPGTFANRDFPPSLLHLHPQFAPPNLDCTPISMLNHSGVGAFRPFASTEDRESYQSAFTPAKRLKNCHDTESPHLRFSDADGKEYDFGTQLPSSSPGSLKVDDTGKKIFAVSGLISDRETSSSPEDRNDRCKKKAVALFDSQAPLCPICQVLLRPSELQEHMEQELEQLAQLPASKNSLLKDAMAPGTPKSLLLSASIKREGDSPTASPHSSATEDLHHSDRYQTFLRVRANRQTRLNARIGKMKRRKQDEGQREGSCMAEDDAVDIEHADSNRFEEYEWCGQKQIRATTLLEGGFRGSGFVMCSGKENPDSDADLDVDGDDTLEYGKPQYTEADVIPCTGEEPGEAKEREALRGAVLNGGPPSTRITPEFSKWASDEMPSTSNGEGSKQEAMQKTCKNSDIEKITEESAVTTFEALKARVRELERQLSRGDRYKCLICMDSYSMPLTSIQCWHVHCEECWLRTLGAKKLCPQCNTITAPGDLRRIYL
2 | 0.3 | RNF220(R365Q) (enzyme, mouse, UniProt Q6PDX6 1-566, looked up) MDLHRAAFKMENSSYLPNPLASPALMVLASTAEASRDASIPCQQPRPFGVPVSVDKDVHIPFTNGSYTFASMYHRQGGVPGTFANRDFPPSLLHLHPQFAPPNLDCTPISMLNHSGVGAFRPFASTEDRESYQSAFTPAKRLKNCHDTESPHLRFSDADGKEYDFGTQLPSSSPGSLKVDDTGKKIFAVSGLISDRETSSSPEDRNDRCKKKAVALFDSQAPLCPICQVLLRPSELQEHMEQELEQLAQLPASKNSLLKDAMAPGTPKSLLLSASIKREGDSPTASPHSSATEDLHHSDRYQTFLRVRANRQTRLNARIGKMKRRKQDEGQREGSCMAEDDAVDIEHADSNRFEEYEWCGQKRIQATTLLEGGFRGSGFVMCSGKENPDSDADLDVDGDDTLEYGKPQYTEADVIPCTGEEPGEAKEREALRGAVLNGGPPSTRITPEFSKWASDEMPSTSNGEGSKQEAMQKTCKNSDIEKITEESAVTTFEALKARVRELERQLSRGDRYKCLICMDSYSMPLTSIQCWHVHCEECWLRTLGAKKLCPQCNTITAPGDLRRIYL
